± gives the standard deviation of the averaged measurements.
B1: library; a variant is named by its letters at N, in order (parent)
chain: GCUGUCACCGGUGCUUGGUACGUUAUAUUCAGCCGGUCUGAUGAGUCUNNNNNNAGACGAAACAGC

What was measured:
(6R,S)-folinic acid [1] = variants of: B1; experiment: normalized RNA/DNA level without ligand (relative to sTRSVctl = 100) (log10 (% of sTRSVctl)); HEK293T overexpressing SLC46A1; higher = less ribozyme self-cleavage, higher mRNA level; conditions: without (6R,S)-folinic acid; ligand present: no
How it was run: (§1)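 Only sequences with at least 100 DNA reads were analyzed, from HEK293T cells transfected with 4 µg per 6-well well of ribozyme switch library plasmids 72 h before RNA extraction with EDTA. Any ligand was added 1 h before transfection. RNA level was defined as RNA over DNA reads, normalized to a spiked-in non-cleaving sequence or to the top sequences, then scaled and log-transformed. The top set was 25 sequences, and the scaling was ×100 followed by log10.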

(6R,S)-folinic acid [2] = variants of: B1; experiment: normalized RNA/DNA level with ligand (relative to sTRSVctl = 100) (log10 (% of sTRSVctl)); HEK293T overexpressing SLC46A1; ligand concentration (+) RNA-Seq: 6 mM; higher = less ribozyme self-cleavage, higher mRNA level; conditions: with (6R,S)-folinic acid; ligand present: yes
How it was run: as §1

Variant	normalized RNA/DNA level without ligand (log10) ((6R,S)-folinic acid [1])	normalized RNA/DNA level with ligand (log10) ((6R,S)-folinic acid [2])
AGCGGA	2.024 ± 0.0064	2.024 ± 0.01
AGCGGG	2.004 ± 0.016	2.055 ± 0.019
AGAGCG	1.775 ± 0.0033	1.97 ± 0.029
AGAGCA	1.977 ± 0.0046	2.01 ± 0.051
AGAGCC	2.05 ± 0.003	2.04 ± 0.045
GGAUUA	2.014 ± 0.0063	2.0315 ± 0.0011
GGAUUG	1.996 ± 0.0084	2.05 ± 0.053
CGCACC	2.079 ± 0.014	2.07 ± 0.063
CGCACG	2.046 ± 0.0062	2.026 ± 0.018
CGCACU	2.0385 ± 0.00015	2.01 ± 0.034
CGCACA	1.989 ± 0.0068	1.98 ± 0.026
CGCGUA	1.993 ± 0.017	2.006 ± 0.0037
CGCCUA	2.05 ± 0.0096	2.05 ± 0.061
CGCCUU	2.0227 ± 0.00028	2.007 ± 0.018
CGCCUC	2.039 ± 0.0057	1.992 ± 0.015
CGCCUG	2.057 ± 0.011	2.056 ± 0.002
AGAGAG	1.67 ± 0.022	1.966 ± 0.015
AGAGAU	1.982 ± 0.011	1.99 ± 0.023
CGCGGU	2.003 ± 0.019	2.035 ± 0.015
CGCGGG	1.938 ± 0.017	2.039 ± 0.01

Variant	normalized RNA/DNA level without ligand (log10) ((6R,S)-folinic acid [1])	normalized RNA/DNA level with ligand (log10) ((6R,S)-folinic acid [2])
CGCGGC	2.11 ± 0.023	2.13 ± 0.047
CGCGGA	2.052 ± 0.0026	2.05 ± 0.03
GGCCCG	2.07 ± 0.0078	2.07 ± 0.023
GGCCCA	2.053 ± 0.01	2.032 ± 0.012
GGCCCU	2.099 ± 0.012	2.061 ± 0.013
GGCCCC	2.023 ± 0.0026	2.01 ± 0.026
CGCCCA	2.068 ± 0.0022	2.06 ± 0.033
CGCCCC	2.082 ± 0.017	2.04 ± 0.057
CGCCCU	2.09 ± 0.04	2.092 ± 0.017
CGCCCG	2.03 ± 0.029	2.031 ± 0.0094
GGAGCU	2.045 ± 0.017	2.04 ± 0.04
GGAGCG	1.939 ± 0.011	2.02 ± 0.041
GGAGCA	1.978 ± 0.0021	2.02 ± 0.022
CGCCGG	2.03 ± 0.026	2.034 ± 0.017
CGCCGA	2.027 ± 0.0027	2.08 ± 0.044
CGCCGC	2.062 ± 0.0024	2.03 ± 0.047
CGCCGU	2.038 ± 0.0097	2.05 ± 0.065
AGCAGU	1.991 ± 0.0037	2.01 ± 0.028
AGCAGG	1.944 ± 0.0028	2.01 ± 0.042
AGCAGC	2.028 ± 0.0032	2.03 ± 0.054

Variant	normalized RNA/DNA level without ligand (log10) ((6R,S)-folinic acid [1])	normalized RNA/DNA level with ligand (log10) ((6R,S)-folinic acid [2])
GGCAAG	2.034 ± 0.007	2.003 ± 0.017
GGCAAA	2.069 ± 0.0036	2.04 ± 0.044
GGCAAU	2.057 ± 0.01	2.04 ± 0.03
GGCAAC	2.057 ± 0.0039	2.04 ± 0.0099
UGCGAA	1.966 ± 0.011	1.97 ± 0.029
GGCAGG	2.064 ± 0.015	2.045 ± 0.0058
GGCAGU	2.058 ± 0.0031	2.013 ± 0.0043
GGCAGA	2.077 ± 0.0039	2.033 ± 0.004
GGCAGC	2.001 ± 0.008	1.98 ± 0.032
AGCGAG	1.886 ± 0.014	1.998 ± 0.012
AGCGAU	1.982 ± 0.0033	2 ± 0.028
AGCGAC	1.99 ± 0.011	2.0338 ± 0.00013
AGCGAA	1.96 ± 0.014	2.01 ± 0.03
UGCAAC	1.95 ± 0.0091	1.99 ± 0.029
UGCAAG	1.778 ± 0.01	1.96 ± 0.029
AGCGCC	2.058 ± 0.017	2.03 ± 0.037
AGCGCG	1.972 ± 0.019	2 ± 0.037
AGCGCU	2.027 ± 0.0049	2.01 ± 0.026
